Laboratory results taken from patent US20100143365A1.

Columns and labels:
[1] = target: lysozyme Gallus gallus fibrils (Gallus gallus) (UniProt P00698); experiment: ELISA, lysozyme fibrils
[2] = target: human fibrillar Aβ42 (human) (UniProt P05067); experiment: ELISA, Aβ fibrils
Sequence of UniProt P05067 (P05067 672-713 limits assumed): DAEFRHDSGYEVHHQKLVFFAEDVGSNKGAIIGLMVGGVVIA

Sequence of UniProt P00698 (P00698 other isoform, or with tags, fused parts or gaps limits assumed): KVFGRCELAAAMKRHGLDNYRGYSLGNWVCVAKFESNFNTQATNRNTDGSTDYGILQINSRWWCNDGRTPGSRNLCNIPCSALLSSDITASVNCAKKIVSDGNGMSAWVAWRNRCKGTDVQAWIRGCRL

B1: scFv21 (anti-amyloid scFv designated Pan 21′) (scFv)
scFv: DKLMAEVQLLESGGGLVQPGGSLRLSCAASGFTFSSYAMSWVRQAPGKGLEWVSSIQKSGEKTHYADSVKGRFTISRDNSKNTLYLQMNSLRAEDTAVYYCAKKRTLFDYWGQGTLVTVSSGGGGSGGGGSGGGGSTDIQMTQSPSSLSASVGDRVTITCRASQSISSYLNWYQQKPGKAPKLLIYRASYLQSGVPSRFSGSGSGTDFTLTISSLQPEDFATYYCQQSYSLPTTFGQGTKVEIKRAAAHHHHHHGAAEQKLISEEDLN
B1 was tested, and the OD Values [1] was 0.095 OD and the OD Values [2] was 0.011 OD.
